Results published in US20230143604A1, “QW DOSING OF GIP RECEPTOR AGONIST PEPTIDE COMPOUNDS AND USES THEREOF” (TAKEDA PHARMACEUTICAL COMPANY LIMITED, priority 2020, published 2023).
Starred links: 1 amine or outer side, 2 acyl side, 3 side chain; linkers in the order of their positions; H or OH if unused. Non-standard residues stand in square brackets, D forms with d. Groups on a side chain read outwards from the residue. No end group written: not given here. *: point of attachment. C17 diacid = O=C(O)CCCCCCCCCCCCCCCC(=O)*; γGlu = O=C(O)[C@H](CCC(=O)[*:2])N[*:1]; NMeY = CN[C@@H](Cc1ccc(O)cc1)C(=O)O; AEEA = NCCOCCOCC(=O)O; Aib = CC(C)(N)C(=O)O

B1: Compound No. 130 (peptide)
peptide: H-Y[Aib]EGTFISDYSIALDK[Aib]AQQK([AEEA-AEEA-γGlu-γGlu-C17 diacid])FVEWLLAQRG-OH
SMILES: CC[C@H](C)[C@H](NC(=O)[C@H](CO)NC(=O)[C@H](Cc1ccc(O)cc1)NC(=O)[C@H](CC(=O)O)NC(=O)[C@H](CO)NC(=O)[C@@H](NC(=O)[C@H](Cc1ccccc1)NC(=O)[C@@H](NC(=O)CNC(=O)[C@H](CCC(=O)O)NC(=O)C(C)(C)NC(=O)[C@@H](N)Cc1ccc(O)cc1)[C@@H](C)O)[C@@H](C)CC)C(=O)N[C@@H](C)C(=O)N[C@@H](CC(C)C)C(=O)N[C@@H](CC(=O)O)C(=O)N[C@@H](CCCCN)C(=O)NC(C)(C)C(=O)N[C@@H](C)C(=O)N[C@@H](CCC(N)=O)C(=O)N[C@@H](CCC(N)=O)C(=O)N[C@@H](CCCCNC(=O)COCCOCCNC(=O)COCCOCCNC(=O)CC[C@H](NC(=O)CC[C@H](NC(=O)CCCCCCCCCCCCCCCC(=O)O)C(=O)O)C(=O)O)C(=O)N[C@@H](Cc1ccccc1)C(=O)N[C@H](C(=O)N[C@@H](CCC(=O)O)C(=O)N[C@@H](Cc1c[nH]c2ccccc12)C(=O)N[C@@H](CC(C)C)C(=O)N[C@@H](CC(C)C)C(=O)N[C@@H](C)C(=O)N[C@@H](CCC(N)=O)C(=O)N[C@@H](CCCNC(=N)N)C(=O)NCC(=O)O)C(C)C
B2: Compound No. 126 (peptide)
peptide: [NMeY][Aib]EGTFISDYSI[Aib]LDR[Aib]AQ[Aib]K([AEEA-AEEA-γGlu-γGlu-C17 diacid])FVNWLLAQSPG-OH
modifications: N-terminus assumed
SMILES: CC[C@H](C)[C@H](NC(=O)[C@H](Cc1ccccc1)NC(=O)[C@@H](NC(=O)CNC(=O)[C@H](CCC(=O)O)NC(=O)C(C)(C)NC(=O)[C@H](Cc1ccc(O)cc1)NC)[C@@H](C)O)C(=O)N[C@@H](CO)C(=O)N[C@@H](CC(=O)O)C(=O)N[C@@H](Cc1ccc(O)cc1)C(=O)N[C@@H](CO)C(=O)N[C@H](C(=O)NC(C)(C)C(=O)N[C@@H](CC(C)C)C(=O)N[C@@H](CC(=O)O)C(=O)N[C@@H](CCCNC(=N)N)C(=O)NC(C)(C)C(=O)N[C@@H](C)C(=O)N[C@@H](CCC(N)=O)C(=O)NC(C)(C)C(=O)N[C@@H](CCCCNC(=O)COCCOCCNC(=O)COCCOCCNC(=O)CC[C@H](NC(=O)CC[C@H](NC(=O)CCCCCCCCCCCCCCCC(=O)O)C(=O)O)C(=O)O)C(=O)N[C@@H](Cc1ccccc1)C(=O)N[C@H](C(=O)N[C@@H](CC(N)=O)C(=O)N[C@@H](Cc1c[nH]c2ccccc12)C(=O)N[C@@H](CC(C)C)C(=O)N[C@@H](CC(C)C)C(=O)N[C@@H](C)C(=O)N[C@@H](CCC(N)=O)C(=O)N[C@@H](CO)C(=O)N1CCC[C@H]1C(=O)NCC(=O)O)C(C)C)[C@@H](C)CC
B3: Compound No. 129 (peptide)
peptide: H-Y[Aib]EGTFISDYSI[Aib]LDKIAQQK([AEEA-AEEA-γGlu-γGlu-C17 diacid])FVEWLLAQRG-OH
SMILES: CC[C@H](C)[C@H](NC(=O)[C@H](CCCCN)NC(=O)[C@H](CC(=O)O)NC(=O)[C@H](CC(C)C)NC(=O)C(C)(C)NC(=O)[C@@H](NC(=O)[C@H](CO)NC(=O)[C@H](Cc1ccc(O)cc1)NC(=O)[C@H](CC(=O)O)NC(=O)[C@H](CO)NC(=O)[C@@H](NC(=O)[C@H](Cc1ccccc1)NC(=O)[C@@H](NC(=O)CNC(=O)[C@H](CCC(=O)O)NC(=O)C(C)(C)NC(=O)[C@@H](N)Cc1ccc(O)cc1)[C@@H](C)O)[C@@H](C)CC)[C@@H](C)CC)C(=O)N[C@@H](C)C(=O)N[C@@H](CCC(N)=O)C(=O)N[C@@H](CCC(N)=O)C(=O)N[C@@H](CCCCNC(=O)COCCOCCNC(=O)COCCOCCNC(=O)CC[C@H](NC(=O)CC[C@H](NC(=O)CCCCCCCCCCCCCCCC(=O)O)C(=O)O)C(=O)O)C(=O)N[C@@H](Cc1ccccc1)C(=O)N[C@H](C(=O)N[C@@H](CCC(=O)O)C(=O)N[C@@H](Cc1c[nH]c2ccccc12)C(=O)N[C@@H](CC(C)C)C(=O)N[C@@H](CC(C)C)C(=O)N[C@@H](C)C(=O)N[C@@H](CCC(N)=O)C(=O)N[C@@H](CCCNC(=N)N)C(=O)NCC(=O)O)C(C)C
B4: Compound No. 125 (peptide)
peptide: [NMeY][Aib]EGTFISDYSIALDR[Aib]AQ[Aib]K([AEEA-AEEA-γGlu-γGlu-C17 diacid])FVNWLLAQSPG-OH
modifications: N-terminus assumed
SMILES: CC[C@H](C)[C@H](NC(=O)[C@H](CO)NC(=O)[C@H](Cc1ccc(O)cc1)NC(=O)[C@H](CC(=O)O)NC(=O)[C@H](CO)NC(=O)[C@@H](NC(=O)[C@H](Cc1ccccc1)NC(=O)[C@@H](NC(=O)CNC(=O)[C@H](CCC(=O)O)NC(=O)C(C)(C)NC(=O)[C@H](Cc1ccc(O)cc1)NC)[C@@H](C)O)[C@@H](C)CC)C(=O)N[C@@H](C)C(=O)N[C@@H](CC(C)C)C(=O)N[C@@H](CC(=O)O)C(=O)N[C@@H](CCCNC(=N)N)C(=O)NC(C)(C)C(=O)N[C@@H](C)C(=O)N[C@@H](CCC(N)=O)C(=O)NC(C)(C)C(=O)N[C@@H](CCCCNC(=O)COCCOCCNC(=O)COCCOCCNC(=O)CC[C@H](NC(=O)CC[C@H](NC(=O)CCCCCCCCCCCCCCCC(=O)O)C(=O)O)C(=O)O)C(=O)N[C@@H](Cc1ccccc1)C(=O)N[C@H](C(=O)N[C@@H](CC(N)=O)C(=O)N[C@@H](Cc1c[nH]c2ccccc12)C(=O)N[C@@H](CC(C)C)C(=O)N[C@@H](CC(C)C)C(=O)N[C@@H](C)C(=O)N[C@@H](CCC(N)=O)C(=O)N[C@@H](CO)C(=O)N1CCC[C@H]1C(=O)NCC(=O)O)C(C)C
B5: Compound No. 127 (peptide)
peptide: [NMeY][Aib]EGTFISDYSI[Aib]LDR[Aib]AQ[Aib]K([AEEA-AEEA-γGlu-γGlu-C17 diacid])FVNWLLAQRG-OH
modifications: N-terminus assumed
SMILES: CC[C@H](C)[C@H](NC(=O)[C@H](Cc1ccccc1)NC(=O)[C@@H](NC(=O)CNC(=O)[C@H](CCC(=O)O)NC(=O)C(C)(C)NC(=O)[C@H](Cc1ccc(O)cc1)NC)[C@@H](C)O)C(=O)N[C@@H](CO)C(=O)N[C@@H](CC(=O)O)C(=O)N[C@@H](Cc1ccc(O)cc1)C(=O)N[C@@H](CO)C(=O)N[C@H](C(=O)NC(C)(C)C(=O)N[C@@H](CC(C)C)C(=O)N[C@@H](CC(=O)O)C(=O)N[C@@H](CCCNC(=N)N)C(=O)NC(C)(C)C(=O)N[C@@H](C)C(=O)N[C@@H](CCC(N)=O)C(=O)NC(C)(C)C(=O)N[C@@H](CCCCNC(=O)COCCOCCNC(=O)COCCOCCNC(=O)CC[C@H](NC(=O)CC[C@H](NC(=O)CCCCCCCCCCCCCCCC(=O)O)C(=O)O)C(=O)O)C(=O)N[C@@H](Cc1ccccc1)C(=O)N[C@H](C(=O)N[C@@H](CC(N)=O)C(=O)N[C@@H](Cc1c[nH]c2ccccc12)C(=O)N[C@@H](CC(C)C)C(=O)N[C@@H](CC(C)C)C(=O)N[C@@H](C)C(=O)N[C@@H](CCC(N)=O)C(=O)N[C@@H](CCCNC(=N)N)C(=O)NCC(=O)O)C(C)C)[C@@H](C)CC

Each binder was assayed against T1, full-length human GIPR with an N-terminal FLAG tag (human, UniProt P48546 22-466) (assay: cell-based or functional assay).
T1 sequence (looked up): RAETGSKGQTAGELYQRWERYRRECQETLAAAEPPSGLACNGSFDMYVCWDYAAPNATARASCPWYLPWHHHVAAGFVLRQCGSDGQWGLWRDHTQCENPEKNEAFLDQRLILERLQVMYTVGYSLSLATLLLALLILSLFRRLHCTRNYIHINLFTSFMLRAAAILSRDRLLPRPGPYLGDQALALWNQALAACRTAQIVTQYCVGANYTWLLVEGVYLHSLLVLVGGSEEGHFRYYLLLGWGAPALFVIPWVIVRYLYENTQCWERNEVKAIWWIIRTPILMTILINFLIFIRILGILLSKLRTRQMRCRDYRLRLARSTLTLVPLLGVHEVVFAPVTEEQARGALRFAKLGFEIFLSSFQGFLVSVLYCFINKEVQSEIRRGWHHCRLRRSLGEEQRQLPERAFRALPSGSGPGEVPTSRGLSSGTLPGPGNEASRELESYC

Point of comparison: B2, “Human GIPR cAMP EC50, HEK293T” value 0.0004 nM. Against it:
- B1 — within 1.5-fold, 0.0003 nM
- YXEGTFISDYSIAXDRXAQXDFVNWLLAQSPG (N-terminus H; Aib at 2,17,20; Lys(G5-C18 diacid) at 14; C-terminal OH) [Compound No. 128] — 2.2-fold higher, 0.0009 nM
- [NMeY][Aib]EGTFISDYSIAK([γGlu-γGlu-γGlu-C17 diacid])DR[Aib]AQ[Aib]NFVNWLLAQSPSSGAPPPS-NH2 [Compound No. 12] — 2-fold lower, 0.0002 nM
- B3 — the same, 0.0004 nM
- B4 — within 1.5-fold, 0.0005 nM
- B5 — 1.8-fold higher, 0.0007 nM

Each binder was assayed against full-length human GLP-1R with an N-terminal FLAG tag (human, UniProt P43220 24-463) (assay: cell-based or functional assay).

Point of comparison: B3, “Human GLP1R cAMP EC50, HEK293T” value 115 nM. Against it:
- B1 — within 1.5-fold, 95.5 nM
- YXEGTFISDYSIAXDRXAQXDFVNWLLAQSPG (N-terminus H; Aib at 2,17,20; Lys(G5-C18 diacid) at 14; C-terminal OH) [Compound No. 128] — 16-fold lower, 7.24 nM
- B2 — 3.7-fold lower, 30.9 nM
- [NMeY][Aib]EGTFISDYSIAK([γGlu-γGlu-γGlu-C17 diacid])DR[Aib]AQ[Aib]NFVNWLLAQSPSSGAPPPS-NH2 [Compound No. 12] — 8.3-fold higher, 955 nM
- B4 — 5.8-fold lower, 20 nM
- B5 — 1.8-fold lower, 63.1 nM
